From paper PMC11451537, “P2X7 receptors exhibit at least three modes of allosteric antagonism” (Science Advances, 2024)

Molecular target: the molecule itself
Assay: cryo-EM structure; purified rP2X7 in 20 mM Hepes pH 7.0, 100 mM NaCl, 0.5 mM C12M (DDM), incubated 1 hour with small-molecule antagonist (about 200 to 400 uM); six antagonist-bound structures at 2.2 to 2.7 A

B1: full-length, wild-type rat P2X7 receptor (receptor, UniProt Q64663 1-595, looked up)
chain: MPACCSWNDVFQYETNKVTRIQSVNYGTIKWILHMTVFSYVSFALMSDKLYQRKEPLISSVHTKVKGVAEVTENVTEGGVTKLVHGIFDTADYTLPLQGNSFFVMTNYLKSEGQEQKLCPEYPSRGKQCHSDQGCIKGWMDPQSKGIQTGRCIPYDQKRKTCEIFAWCPAEEGKEAPRPALLRSAENFTVLIKNNIDFPGHNYTTRNILPGMNISCTFHKTWNPQCPIFRLGDIFQEIGENFTEVAVQGGIMGIEIYWDCNLDSWSHRCQPKYSFRRLDDKYTNESLFPGYNFRYAKYYKENGMEKRTLIKAFGVRFDILVFGTGGKFDIIQLVVYIGSTLSYFGLATVCIDLIINTYASTCCRSRVYPSCKCCEPCAVNEYYYRKKCEPIVEPKPTLKYVSFVDEPHIWMVDQQLLGKSLQDVKGQEVPRPQTDFLELSRLSLSLHHSPPIPGQPEEMQLLQIEAVPRSRDSPDWCQCGNCLPSQLPENRRALEELCCRRKPGQCITTSELFSKIVLSREALQLLLLYQEPLLALEGEAINSKLRHCAYRSYATWRFVSQDMADFAILPSCCRWKIRKEFPKTQGQYSGFKYPY
notes: P2X7 receptor (P2X purinoceptor 7), rat; also called rP2X7; source: HEK293 GNTI- cells, BacMam baculovirus transduction; purified (DDM/CHS solubilisation, TALON resin, HRV 3C digestion, Superdex 200 SEC)
  stoichiometry N: 3
